Assay results from the supplement of paper PMC10471632, “Protein engineering and iterative multimodule optimization for vitamin B6 production in Escherichia coli” (Nature Communications, 2023).
± gives the standard deviation of the averaged measurements.

B1: library; numbered along this chain (parent)
chain: MAELLLGVNIDHIATLRNARGTAYPDPVQAAFIAEQAGADGITVHLREDRRHITDRDVRILRQTLDTRMNLEMAVTEEMLAIAVETKPHFCCLVPEKRQEVTTEGGLDVAGQRDKMRDACKRLADAGIQVSLFIDADEEQIKAAAEVGAPFIEIHTGCYADAKTDAEQAQELARIAKAATFAASLGLKVNAGHGLTYHNVKAIAAIPEMHELNIGHAIIGRAVMTGLKDAVAEMKRLMLEARG

Variants of: B1
Experiment: pyridoxine titer in culture supernatant of strain expressing the PdxJ variant; higher = more PN produced (higher in vivo pathway activity of the PdxJ variant)
Conditions: host strain: E. coli LL006; 48 h; temperature: 37 °C; FM1.4
Protocol: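 Rosetta-designed single to quadruple mutants of E. coli PdxJ (PNP synthase) were expressed from pRSFDuet-1 in the engineered chassis E. coli LL006 (MG1655 ΔpdxH::pdxST, pta::Eme_pdxP). Strains were grown in 24 deep-well plates in 2 mL FM1.4 glycerol medium at 37 °C and 800 rpm for 48 h. Extracellular pyridoxine (PN) titer was quantified by HPLC with fluorescence detection; two biological replicates, with the WT pdxJ strain (LL137, about 0.5 mg/L) as control.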

Variant	pyridoxine titer [mg/L]
MAELLLLVNIDHIATLRNARGTAYPDPVQAAFIAEQAGADGITVHLREDRRHITDRDVRILRQTLDTRMNLEMAVTEEMLAIAVETKPHFCCLVPEKRQEVTLTGGLDVAGQRDKMRDACKRLADAGIQVSLFIDADEEQIKAAAEVGAPFIEIHTGCYADAKTDAEQAQELARIAKAATFAASLGLKVNAGHGLTYHNVKAIAAIPEMHELNIGHAIIGRAVMTGLKDAVAEMKRLMLEARG [G7L T103L E104T]	7.1 ± 0.35
MAELLLGVNLDHIATLRNARGTTYPDPVQAAFIAEQAGADGITVHLREDRRHITDRDVRILRQTLDTRMNLEMAVTEEMLAIAVETKPHFCCLVPEKRQIVTTEGGLDVAGQRDKMRDACKRLADAGIQVSLFIDADEEQIKAAAEVGAPFIEIHTGCYADAKTDAEQAQELARIAKAATFAASLGLKVNAGHGLTYHNVKAIAAIPEMHELNIGHAIIGRAVMTGLKDAVAEMKRLMLEARG [I10L A23T E100I]	4.81 ± 0.11
MAELLLLVNIDHIATLRNARGTAYPDPVQAAFIAEQAGADGITVHLREDRRHITDRDVRILRQTLDTRMNLEMAVTEEMLAIAVETKPHFCCLVPEKRQEVTTEGGLDVAGQRDKMRDACKRLADAGIQVSLFIDADEEQIKAAAEVGAPFIEIHTGCYADAKTDAEQAQELARIAKAATFAASLGLKVNAGHGLTYHNVKAIAAIPEMHELNIGHAIIGRAVMTGLKDAVAEMKRLMLEARG [G7L]	0.9583 ± 0.0052
MAELLLGVNLDHIATLRNARGTTYPDPVQAAFIAEQAGADGITVHLREDRRHITDRDVRILRQTLDTRMNLEMAVTEEMLAIAVETKPHFCCLVPEKRQELTTTGGLDVAGQRDKMRDACKRLADAGIQVSLFIDADEEQIKAAAEVGAPFIEIHTGCYADAKTDAEQAQELARIAKAATFAASLGLKVNAGHGLTYHNVKAIAAIPEMHELNIGHAIIGRAVMTGLKDAVAEMKRLMLEARG [I10L A23T V101L E104T]	0.257 ± 0.014
MAELLLLVNIDHIATLRNARGTAYPDPVQAAFIAEQAGADGITVHLREDRRHITDRDVRILRQTLDTRMNLEMAVTEEMLAIAVETKPHFCCLVPEKRQEVTTEGGLDVAGQRDKMRDACKRLADAGIQVSLFIDADEEQIKAAAEVGAPFIEIITGCYADAKTDAEQAQELARIAKAATFAASLGLKVNAGHGLTYHNVKAIAAIPEMHELNIGHAIIGRAVMTGLKDAVAEMKRLMLEARG [G7L H155I]	0.72 ± 0.071
MAELLLGVNLDHIATLRNARGTTYPDPVQAAFIAEQAGADGITVHLREDRRHITDRDVRILRQTLDTRMNLEMAVTEEMLAIAVETKPHFCCLVPEKRQEVTTTGGLDVAGQRDKMRDACKRLADAGIQVSLFIDADEEQIKAAAEVGAPFIEIHTGCYADAKTDAEQAQELARIAKAATFAASLGLKVNAGHGLTYHNVKAIAAIPEMHELNIGHAICGRAVMTGLKDAVAEMKRLMLEARG [I10L A23T E104T I219C]	3.27 ± 0.22
MAELLLGVNLDHIATLRNARGTTYPDPVQAAFIAEQAGADGITVHLREDRRHITDRDVRILRQTLDTRMNLEMAVTEEMLAIAVETKPHFCCLVPEKRQEVTTTGGLDVAGQRDKMRDACKRLADAGIQVSLFIDADEEQIKAAAEVGAPFIEIHTGCYADAKTDAEQAQELARIAKAATFAASLGLKVNAGHQLTYHNVKAIAAIPEMHELNIGHAIIGRAVMTGLKDAVAEMKRLMLEARG [I10L A23T E104T G194Q]	0.545 ± 0.21
MAELLLWVNLDHIATLRNARGTAYPDPVQAAFIAEQAGADGITVHLREDRRHITDRDVRILRQTLDTRMNLEMAVTEEMLAIAVETKPHFCCLVPEKRQEVTTEGGLDVAGQRDKMRDACKRLADAGIQVSLFIDADEEQIKAAAEVGAPFIEIHTGCYADAKTDAEQAQELARIAKAATFAASLGLKVNAGHGLTYHNVKAIAAIPEMHELNIGHALIGRAVMTGLKDAVAEMKRLMLEARG [G7W I10L I218L]	0.2 ± 0.014
MAELLLMVNIDHIATLRNARGTAYPDPVQAAFIAEQAGADGITVHLREDRRHITDRDVRILRQTLDTRMNLEMAVTEEMLAIAVETKPHFCCLVPEKRQEVTTEGGLDVAGQRDKMRDACKRLADAGIQVSLFIDADEEQIKAAAEVGAPFIEIHTGCYADAKTDAEQAQELARIAKAATFAASLGLKVNAGHGLCYHNVKAIAAIPEMHEINIGHAIIGRAVMTGLKDAVAEMKRLMLEARG [G7M T196C L212I]	6.32 ± 1.8
MAELLLGVNLDHIITLRNARGTAYPDPVQAAFIAEQAGADGITVHLREDRRHITDRDVRILRQTLDTRMNLEMAVTEEMLAIAVETKPHFCCLVPEKRQELTTEGGLDVAGQRDKMRDACKRLADAGIQVSLFIDADEEQIKAAAEVGAPFIEIHTGCYADAKTDAEQAQELARIAKAATFAASLGLKVNAGHGLTYHNVKAIAAIPEMHELNIGHAIIGRAVMTGLKDAVAEMKRLMLEARG [I10L A14I V101L]	0.31 ± 0.014
MAELLLGVNLDHIATLRNARGTTYPDPVQAAFIAEQAGADGITVHLREDRRHITDRDVRILRQTLDTRMNLEMAVTEEMLAIAVETKPHFCCLVPEKRQEVTTEGGLDVAGQRDKMRDACKRLADAGIQVSLFIDADEEQIKAAAEVGAPFIEIHTGCYADAKTDAEQAQELARIAKAATFAASLGLKVNAGHCLTYHNVKAIAAIPEMHELNIGHAIIGRAVMTGLKDAVAEMKRLMLEARG [I10L A23T G194C]	1.27 ± 0.028
MAELLLGVNLDHIATLRNARGTAYPDPVQAAFIAEQAGADGITVHLREDRRHITDRDVRILRQTLDTRMNLEMAVTEEMLAIAVETKPHFCCLVPEKRQEVTTEGGLDVAGQRDKMRDACKRLADAGIQVSLFIDADEEQIKAAAEVGAPFIEIHTGCYADAKTDAEQAQELARIAKAATFAASLGLKVNAGHGLTYHNVKAIAAIPEMHELNIGHAIIGRAVMTGLKDAVAEMKRLMLEARG [I10L]	2.82 ± 0.43
